Holding throughout (test): EMSA; 100 nM probe; 10 mM Tris-HCl pH 8.0, 10 mM NaCl, 25 mM KCl, 1 mM MgCl2, 1 mM DTT, 1 mg/mL tRNA; room temperature 30 min; 4% native acrylamide gel, 1x TBE
The target of one data set is FUS polypeptide-1 (UniProt P35637 1-526). The following applies: protein: recombinant; tags: GST fusion (pGEX-4T-1), TEV cleavage described; label: Cy3 (3').
A further data set deals with FUS polypeptide-4 (UniProt P35637 280-375). The following applies: protein: recombinant; tags: GST fusion (pGEX-4T-1), TEV cleavage described; label: Cy3 (3').
FUS polypeptide-4, sequence (P35637 280-375): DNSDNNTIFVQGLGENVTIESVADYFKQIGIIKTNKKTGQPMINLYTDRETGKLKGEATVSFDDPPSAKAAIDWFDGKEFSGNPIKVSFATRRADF
A further data set concerns the target FUS polypeptide-2 (UniProt P35637 50-400). The following applies: protein: commercial; tags: GST fusion (pGEX-4T-1) described; label: Cy3 (3').
Another data set concerns the target FUS polypeptide-3 (UniProt P35637 1-380). The following applies: protein: recombinant; tags: GST fusion (pGEX-4T-1), TEV cleavage described; label: Cy3 (3').

FUS polypeptide-1, sequence (P35637 whole entry, the tested form may be a part): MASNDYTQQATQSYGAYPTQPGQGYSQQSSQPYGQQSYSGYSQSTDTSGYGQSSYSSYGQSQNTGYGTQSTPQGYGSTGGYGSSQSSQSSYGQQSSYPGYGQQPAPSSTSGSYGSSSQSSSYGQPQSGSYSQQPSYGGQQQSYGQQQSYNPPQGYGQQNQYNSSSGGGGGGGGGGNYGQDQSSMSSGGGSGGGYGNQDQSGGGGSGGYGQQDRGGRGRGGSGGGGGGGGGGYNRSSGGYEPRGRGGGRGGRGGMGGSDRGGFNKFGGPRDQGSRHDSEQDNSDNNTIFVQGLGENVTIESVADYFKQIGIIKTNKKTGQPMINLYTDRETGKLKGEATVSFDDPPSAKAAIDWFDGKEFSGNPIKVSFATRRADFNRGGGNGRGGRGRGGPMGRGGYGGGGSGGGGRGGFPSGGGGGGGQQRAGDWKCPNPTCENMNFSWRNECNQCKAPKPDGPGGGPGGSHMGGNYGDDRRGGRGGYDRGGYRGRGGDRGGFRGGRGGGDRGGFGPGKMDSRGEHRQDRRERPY
FUS polypeptide-2, sequence (P35637 50-400): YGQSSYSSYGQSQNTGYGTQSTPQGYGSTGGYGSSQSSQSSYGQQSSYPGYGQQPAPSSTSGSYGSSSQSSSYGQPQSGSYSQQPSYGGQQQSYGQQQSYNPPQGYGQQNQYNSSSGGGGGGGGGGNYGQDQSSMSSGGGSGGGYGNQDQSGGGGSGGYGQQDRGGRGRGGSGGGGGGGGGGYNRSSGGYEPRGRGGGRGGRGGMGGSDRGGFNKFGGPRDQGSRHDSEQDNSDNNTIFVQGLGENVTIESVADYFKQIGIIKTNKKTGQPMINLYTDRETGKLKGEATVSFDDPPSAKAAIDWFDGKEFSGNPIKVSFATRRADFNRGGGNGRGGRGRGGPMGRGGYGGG
FUS polypeptide-3, sequence (P35637 1-380): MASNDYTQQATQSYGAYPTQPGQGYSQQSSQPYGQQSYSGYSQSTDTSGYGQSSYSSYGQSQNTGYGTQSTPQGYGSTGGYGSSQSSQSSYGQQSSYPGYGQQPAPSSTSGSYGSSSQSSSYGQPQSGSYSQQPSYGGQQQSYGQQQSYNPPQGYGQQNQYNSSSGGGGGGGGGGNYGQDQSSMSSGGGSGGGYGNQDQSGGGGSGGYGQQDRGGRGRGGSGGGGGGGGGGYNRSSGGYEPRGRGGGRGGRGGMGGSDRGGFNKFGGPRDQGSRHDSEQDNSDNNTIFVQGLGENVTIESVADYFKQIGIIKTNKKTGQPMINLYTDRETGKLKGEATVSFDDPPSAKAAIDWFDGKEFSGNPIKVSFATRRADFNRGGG

Take UUGUAUUUUGAGCUAGUUUGGUGAC (ssRNA) [GGUG oligo]: the binding result was “binds” with FUS polypeptide-1, “no binding” in the data set with FUS polypeptide-4, “binds” in the data set with FUS polypeptide-2 and “binds” with FUS polypeptide-3.

(Values after PMC12245079, “FUS Selectively Facilitates circRNAs Packing into Small Extracellular Vesicles within Hypoxia Neuron”.)
